Results on 3 molecules are retold here after paper doi:10.1101/2021.03.01.433494 (bioRxiv, 2021).

Assay [1] deals with T1, M1 protein on the surface of Streptococcus pyogenes strain SF370 (Streptococcus pyogenes SF370 (emm1), UniProt Q99XV0, strain). The assay is described as follows: flow cytometry on cells. For orientation: Flow cytometry measures light scatter and fluorescence of single cells or particles in a stream.
The target of assay [2] is T1, M1 protein on the surface of …. Nature of the assay: far-Western, overlay or dot blot.

B1: Ab49 (human monoclonal anti-M protein IgG) (antibody, V domains shown)
VH: EVQLVESGGGLVQPGGSLRLSCAASGFTVSINYMSWVRQAPGKGLQWVSVIYSGGSTYYADSVKGRFTISRDNSKNTLYLQMNSLRAEDTAMYYCVRDSRFWGIFDYWGQGTLVTVSS
VL: EIVLTQSPATLSLSPGERATLSCRASQSVSSYLAWYQRKPGQAPRLLIYDASNRATGIPARFSGSGSGTDFTLTISSLEPEDFAVYYCQQRSNWPPTFGQGTKVEIK
B1: the binding result in assay [1] is “binds”.

B2: Ab49 single Fab (IgdE-cleaved Ab49) (Fab, V domains shown)
VH: B1 VH
VL: B1 VL
B2: in assay [1], the binding result was “binds”.

B3: Ab32 (human monoclonal anti-M protein IgG) (antibody, V domains shown)
VH: EVQLVESGGGLVRPGGSLRLSCVASGFMFNEYYMSWIRQAPGKGLEWISFISNAGTYTNYAESVKGRFTISRDNAKDSLYLEMNSLRGEDTAVYYCARQGFDTRGEDAFEIWGQGTMVTVSS
VL: EIVLTQSPATLSLSPGERATLSCRASQPLSGYLAWYQQKPGQAPRLLIYNASKRATGIPARFTGSGSGTDFTLTISSLESEDFAVYYCQQRSGWPSIFTFGPGTKVDIK
On to B3, for which the binding result in assay [2] is on record as “binds”.
